# Measured values reported in publication PMC9482650, “Quantitative fragmentomics allow affinity mapping of interactomes” (Nature Communications, 2022).
# Positions count from the first letter of the chain named.
# T1: GRIP1_7, Q9Y3R0
# T1 sequence (Q9Y3R0 999-1096, limits assumed, looked up): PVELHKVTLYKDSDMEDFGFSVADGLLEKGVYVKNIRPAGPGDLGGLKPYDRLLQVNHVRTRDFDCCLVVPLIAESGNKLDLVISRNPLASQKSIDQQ
# T2: GRIP1_4, Q9Y3R0
# T2 sequence (Q9Y3R0 467-571, limits assumed, looked up): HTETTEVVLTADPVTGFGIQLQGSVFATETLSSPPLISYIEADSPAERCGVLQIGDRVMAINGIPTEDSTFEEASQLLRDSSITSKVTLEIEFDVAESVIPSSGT
# T3: SNTG1, Q9NSN8
# T3 sequence (Q9NSN8 52-150, limits assumed, looked up): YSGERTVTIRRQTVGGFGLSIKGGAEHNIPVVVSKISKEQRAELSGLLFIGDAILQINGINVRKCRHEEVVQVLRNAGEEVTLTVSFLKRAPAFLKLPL
# T4: RAPGEF6, Q8TEU7
# T4 sequence (Q8TEU7 525-625, limits assumed, looked up): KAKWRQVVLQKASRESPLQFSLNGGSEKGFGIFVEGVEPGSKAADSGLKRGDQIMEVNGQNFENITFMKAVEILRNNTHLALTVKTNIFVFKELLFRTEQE
# T5: LIN7C, Q9NUP9
# T5 sequence (Q9NUP9 88-185, limits assumed, looked up): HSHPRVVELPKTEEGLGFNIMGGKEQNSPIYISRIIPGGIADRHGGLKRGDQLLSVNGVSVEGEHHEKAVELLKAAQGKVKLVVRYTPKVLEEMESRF
# T6: SNTB1, Q13884
# T6 sequence (Q13884 107-205, limits assumed, looked up): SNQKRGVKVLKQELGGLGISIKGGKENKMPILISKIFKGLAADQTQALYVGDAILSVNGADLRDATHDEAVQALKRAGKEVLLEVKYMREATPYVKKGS
# T7: SYNJ2BP, P57105
# T7 sequence (P57105 8-110, limits assumed, looked up): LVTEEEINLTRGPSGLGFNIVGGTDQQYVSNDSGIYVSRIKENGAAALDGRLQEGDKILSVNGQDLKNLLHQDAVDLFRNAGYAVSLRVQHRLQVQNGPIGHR
# T8: PDZD2_2, O15018
# T8 sequence (O15018 329-429, limits assumed, looked up): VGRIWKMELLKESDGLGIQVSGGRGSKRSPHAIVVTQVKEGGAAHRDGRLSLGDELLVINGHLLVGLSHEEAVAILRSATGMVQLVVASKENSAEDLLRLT
# T9: PTPN13_1, Q12923
# T9 sequence (Q12923 1088-1188, limits assumed, looked up): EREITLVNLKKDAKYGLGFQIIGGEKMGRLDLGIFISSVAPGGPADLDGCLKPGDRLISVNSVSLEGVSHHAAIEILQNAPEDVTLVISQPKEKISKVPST
# T10: LIN7A, O14910
# T10 sequence (O14910 103-200, limits assumed, looked up): T5 sequence (Q9NUP9 88-185, limits assumed, looked up) with E13D, I20V, I40V, D42E, Q77K, G78D, K79S, S96A
# T11: NHERF3_3, Q5T2W1
# T11 sequence (Q5T2W1 238-333, limits assumed, looked up): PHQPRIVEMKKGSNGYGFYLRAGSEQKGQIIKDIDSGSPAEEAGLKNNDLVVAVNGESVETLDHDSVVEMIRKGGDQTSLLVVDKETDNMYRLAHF
# T12: DFNB31_3, Q9P202
# T12 sequence (Q9P202 811-907, limits assumed, looked up): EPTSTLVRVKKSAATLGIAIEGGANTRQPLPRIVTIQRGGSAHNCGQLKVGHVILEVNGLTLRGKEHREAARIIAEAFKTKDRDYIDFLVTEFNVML
# T13: MPDZ_5, O75970
# T13 sequence (O75970 695-796, limits assumed, looked up): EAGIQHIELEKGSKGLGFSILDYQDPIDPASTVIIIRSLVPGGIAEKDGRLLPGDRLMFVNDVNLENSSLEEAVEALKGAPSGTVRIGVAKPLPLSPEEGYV
# Biological target: T1, GRIP1_7, Q9Y3R0
# Test: holdup assay
# Set-up: key: below the threshold = too weak to quantify, mostly under pKd 3.1 to 4
# Conditions: plain residues with an end cap or a label only (N-terminal biotin on a linker: ado-ado)
row,Binder,pKd
1,"SSGSTSSSRI [ADGRG1, Q9Y653]",below the threshold
2,"PEEGKKQSQC [GAGE12J, A6NER3]",below the threshold

# Biological target: PICK1, Q9NRD5
# Sequence (Q9NRD5 17-115): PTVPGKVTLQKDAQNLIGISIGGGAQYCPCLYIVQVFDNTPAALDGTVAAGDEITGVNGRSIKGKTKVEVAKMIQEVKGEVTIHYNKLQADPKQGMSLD
# Test: holdup assay
# Set-up: key: below the threshold = too weak to quantify, mostly under pKd 3.1 to 4
# Conditions: plain residues with an end cap or a label only (N-terminal biotin on a linker: ado-ado)
row,Binder,pKd
1,"SSGSTSSSRI [ADGRG1, Q9Y653]",below the threshold
2,"PEEGKKQSQC [GAGE12J, A6NER3]",below the threshold

# Biological target: TJP1_3, Q07157
# Sequence (Q07157 416-512): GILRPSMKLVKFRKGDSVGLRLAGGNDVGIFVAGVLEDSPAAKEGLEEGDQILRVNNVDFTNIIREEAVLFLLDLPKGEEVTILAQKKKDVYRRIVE
# Test: holdup assay
# Set-up: key: below the threshold = too weak to quantify, mostly under pKd 3.1 to 4
# Conditions: plain residues with an end cap or a label only (N-terminal biotin on a linker: ado-ado)
row,Binder,pKd
1,"SSGSTSSSRI [ADGRG1, Q9Y653]",below the threshold
2,"PEEGKKQSQC [GAGE12J, A6NER3]",below the threshold

# Biological target: T2, GRIP1_4, Q9Y3R0
# Test: holdup assay
# Set-up: key: below the threshold = too weak to quantify, mostly under pKd 3.1 to 4
# Conditions: plain residues with an end cap or a label only (N-terminal biotin on a linker: ado-ado)
row,Binder,pKd
1,"SSGSTSSSRI [ADGRG1, Q9Y653]",below the threshold
2,"PEEGKKQSQC [GAGE12J, A6NER3]",below the threshold

# Biological target: GRID2IP_1, A4D2P6
# Sequence (A4D2P6 1-87): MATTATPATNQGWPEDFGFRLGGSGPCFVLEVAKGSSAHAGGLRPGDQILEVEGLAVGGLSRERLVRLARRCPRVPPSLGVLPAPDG
# Test: holdup assay
# Set-up: key: below the threshold = too weak to quantify, mostly under pKd 3.1 to 4
# Conditions: plain residues with an end cap or a label only (N-terminal biotin on a linker: ado-ado)
row,Binder,pKd
1,"SSGSTSSSRI [ADGRG1, Q9Y653]",below the threshold
2,"PEEGKKQSQC [GAGE12J, A6NER3]",below the threshold

# Biological target: MAGI2_5, Q86UL8
# Sequence (Q86UL8 915-1017): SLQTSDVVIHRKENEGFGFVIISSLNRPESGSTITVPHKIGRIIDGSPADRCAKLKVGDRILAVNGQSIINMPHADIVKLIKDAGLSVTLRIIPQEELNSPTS
# Test: holdup assay
# Set-up: key: below the threshold = too weak to quantify, mostly under pKd 3.1 to 4
# Conditions: plain residues with an end cap or a label only (N-terminal biotin on a linker: ado-ado)
row,Binder,pKd
1,"SSGSTSSSRI [ADGRG1, Q9Y653]",below the threshold
2,"PEEGKKQSQC [GAGE12J, A6NER3]",below the threshold

# Biological target: T3, SNTG1, Q9NSN8
# Test: holdup assay
# Set-up: key: below the threshold = too weak to quantify, mostly under pKd 3.1 to 4
# Conditions: plain residues with an end cap or a label only (N-terminal biotin on a linker: ado-ado)
row,Binder,pKd
1,"SSGSTSSSRI [ADGRG1, Q9Y653]",below the threshold
2,"PEEGKKQSQC [GAGE12J, A6NER3]",below the threshold

# Biological target: T4, RAPGEF6, Q8TEU7
# Test: holdup assay
# Set-up: key: below the threshold = too weak to quantify, mostly under pKd 3.1 to 4
# Conditions: plain residues with an end cap or a label only (N-terminal biotin on a linker: ado-ado)
row,Binder,pKd
1,"SSGSTSSSRI [ADGRG1, Q9Y653]",3.7
2,"PEEGKKQSQC [GAGE12J, A6NER3]",below the threshold

# Biological target: FRMPD3, Q5JV73
# Sequence (Q5JV73 12-100): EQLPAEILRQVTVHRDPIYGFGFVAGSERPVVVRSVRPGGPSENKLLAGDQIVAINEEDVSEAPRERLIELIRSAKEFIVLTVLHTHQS
# Test: holdup assay
# Set-up: key: below the threshold = too weak to quantify, mostly under pKd 3.1 to 4
# Conditions: plain residues with an end cap or a label only (N-terminal biotin on a linker: ado-ado)
row,Binder,pKd
1,"SSGSTSSSRI [ADGRG1, Q9Y653]",below the threshold
2,"PEEGKKQSQC [GAGE12J, A6NER3]",below the threshold

# Biological target: T5, LIN7C, Q9NUP9
# Test: holdup assay
# Set-up: key: below the threshold = too weak to quantify, mostly under pKd 3.1 to 4
# Conditions: plain residues with an end cap or a label only (N-terminal biotin on a linker: ado-ado)
row,Binder,pKd
1,"SSGSTSSSRI [ADGRG1, Q9Y653]",below the threshold
2,"PEEGKKQSQC [GAGE12J, A6NER3]",below the threshold

# Biological target: AHNAK1, Q09666
# Sequence (Q09666 4-100): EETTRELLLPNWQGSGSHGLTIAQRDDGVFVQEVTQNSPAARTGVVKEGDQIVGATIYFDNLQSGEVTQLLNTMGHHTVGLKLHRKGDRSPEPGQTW
# Test: holdup assay
# Set-up: key: below the threshold = too weak to quantify, mostly under pKd 3.1 to 4
# Conditions: plain residues with an end cap or a label only (N-terminal biotin on a linker: ado-ado)
row,Binder,pKd
1,"SSGSTSSSRI [ADGRG1, Q9Y653]",below the threshold
2,"PEEGKKQSQC [GAGE12J, A6NER3]",below the threshold

# Biological target: GORASP2, Q9H8Y8
# Test: holdup assay
# Set-up: key: below the threshold = too weak to quantify, mostly under pKd 3.1 to 4
# Conditions: plain residues with an end cap or a label only (N-terminal biotin on a linker: ado-ado)
row,Binder,pKd
1,"SSGSTSSSRI [ADGRG1, Q9Y653]",3.57
2,"PEEGKKQSQC [GAGE12J, A6NER3]",below the threshold

# Biological target: T6, SNTB1, Q13884
# Test: holdup assay
# Set-up: key: below the threshold = too weak to quantify, mostly under pKd 3.1 to 4
# Conditions: plain residues with an end cap or a label only (N-terminal biotin on a linker: ado-ado)
row,Binder,pKd
1,"SSGSTSSSRI [ADGRG1, Q9Y653]",below the threshold
2,"PEEGKKQSQC [GAGE12J, A6NER3]",below the threshold

# Biological target: LNX1_3, Q8TBB1
# Sequence (Q8TBB1 500-596): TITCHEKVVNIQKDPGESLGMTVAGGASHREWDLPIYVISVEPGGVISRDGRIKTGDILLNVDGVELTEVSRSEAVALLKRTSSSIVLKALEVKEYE
# Test: holdup assay
# Set-up: key: below the threshold = too weak to quantify, mostly under pKd 3.1 to 4
# Conditions: plain residues with an end cap or a label only (N-terminal biotin on a linker: ado-ado)
row,Binder,pKd
1,"SSGSTSSSRI [ADGRG1, Q9Y653]",below the threshold
2,"PEEGKKQSQC [GAGE12J, A6NER3]",below the threshold

# Biological target: FRMPD2_2, Q68DX3
# Sequence (Q68DX3 944-1038): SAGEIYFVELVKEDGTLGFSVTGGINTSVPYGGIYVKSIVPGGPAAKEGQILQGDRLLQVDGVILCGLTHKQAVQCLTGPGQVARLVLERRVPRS
# Test: holdup assay
# Set-up: key: below the threshold = too weak to quantify, mostly under pKd 3.1 to 4
# Conditions: plain residues with an end cap or a label only (N-terminal biotin on a linker: ado-ado)
row,Binder,pKd
1,"SSGSTSSSRI [ADGRG1, Q9Y653]",below the threshold
2,"PEEGKKQSQC [GAGE12J, A6NER3]",below the threshold

# Biological target: T7, SYNJ2BP, P57105
# Test: holdup assay
# Set-up: key: below the threshold = too weak to quantify, mostly under pKd 3.1 to 4
# Conditions: plain residues with an end cap or a label only (N-terminal biotin on a linker: ado-ado)
row,Binder,pKd
1,"SSGSTSSSRI [ADGRG1, Q9Y653]",below the threshold
2,"PEEGKKQSQC [GAGE12J, A6NER3]",3.54

# Biological target: MAST2, Q6P0Q8
# Sequence (Q6P0Q8 1099-1202): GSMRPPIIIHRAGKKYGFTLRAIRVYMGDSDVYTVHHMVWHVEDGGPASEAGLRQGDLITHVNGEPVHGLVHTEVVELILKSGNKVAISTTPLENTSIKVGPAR
# Test: holdup assay
# Set-up: key: below the threshold = too weak to quantify, mostly under pKd 3.1 to 4
# Conditions: plain residues with an end cap or a label only (N-terminal biotin on a linker: ado-ado)
row,Binder,pKd
1,"SSGSTSSSRI [ADGRG1, Q9Y653]",4.68
2,"PEEGKKQSQC [GAGE12J, A6NER3]",4.33

# Biological target: T8, PDZD2_2, O15018
# Test: holdup assay
# Set-up: key: below the threshold = too weak to quantify, mostly under pKd 3.1 to 4
# Conditions: plain residues with an end cap or a label only (N-terminal biotin on a linker: ado-ado)
row,Binder,pKd
1,"SSGSTSSSRI [ADGRG1, Q9Y653]",4.18
2,"PEEGKKQSQC [GAGE12J, A6NER3]",4.01

# Biological target: Inadl_5, Q8NI35
# Sequence (Q8NI35 673-780): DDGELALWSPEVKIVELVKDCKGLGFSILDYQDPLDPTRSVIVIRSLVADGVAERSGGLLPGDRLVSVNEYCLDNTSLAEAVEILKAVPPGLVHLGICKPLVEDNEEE
# Test: holdup assay
# Set-up: key: below the threshold = too weak to quantify, mostly under pKd 3.1 to 4
# Conditions: plain residues with an end cap or a label only (N-terminal biotin on a linker: ado-ado)
row,Binder,pKd
1,"SSGSTSSSRI [ADGRG1, Q9Y653]",below the threshold
2,"PEEGKKQSQC [GAGE12J, A6NER3]",below the threshold

# Biological target: T9, PTPN13_1, Q12923
# Test: holdup assay
# Set-up: key: below the threshold = too weak to quantify, mostly under pKd 3.1 to 4
# Conditions: plain residues with an end cap or a label only (N-terminal biotin on a linker: ado-ado)
row,Binder,pKd
1,"SSGSTSSSRI [ADGRG1, Q9Y653]",below the threshold
2,"PEEGKKQSQC [GAGE12J, A6NER3]",below the threshold

# Biological target: T10, LIN7A, O14910
# Test: holdup assay
# Set-up: key: below the threshold = too weak to quantify, mostly under pKd 3.1 to 4
# Conditions: plain residues with an end cap or a label only (N-terminal biotin on a linker: ado-ado)
row,Binder,pKd
1,"SSGSTSSSRI [ADGRG1, Q9Y653]",below the threshold
2,"PEEGKKQSQC [GAGE12J, A6NER3]",below the threshold

# Biological target: T11, NHERF3_3, Q5T2W1
# Test: holdup assay
# Set-up: key: below the threshold = too weak to quantify, mostly under pKd 3.1 to 4
# Conditions: plain residues with an end cap or a label only (N-terminal biotin on a linker: ado-ado)
row,Binder,pKd
1,"SSGSTSSSRI [ADGRG1, Q9Y653]",below the threshold
2,"PEEGKKQSQC [GAGE12J, A6NER3]",below the threshold

# Biological target: T12, DFNB31_3, Q9P202
# Test: holdup assay
# Set-up: key: below the threshold = too weak to quantify, mostly under pKd 3.1 to 4
# Conditions: plain residues with an end cap or a label only (N-terminal biotin on a linker: ado-ado)
row,Binder,pKd
1,"SSGSTSSSRI [ADGRG1, Q9Y653]",3.96
2,"PEEGKKQSQC [GAGE12J, A6NER3]",4

# Biological target: T13, MPDZ_5, O75970
# Test: holdup assay
# Set-up: key: below the threshold = too weak to quantify, mostly under pKd 3.1 to 4
# Conditions: plain residues with an end cap or a label only (N-terminal biotin on a linker: ado-ado)
row,Binder,pKd
1,"SSGSTSSSRI [ADGRG1, Q9Y653]",below the threshold
2,"PEEGKKQSQC [GAGE12J, A6NER3]",below the threshold
